# In the DeepSol protein solubility set:
# Assay: soluble on expression in E. coli; label from the status in PepcDB or PDB records
row,Sequence,soluble on expression in E. coli
1,MAHHHHHHMSISGAAAPAPLRGRESGGNVPGSMGALIKKLHPLYTQRVRPLEEMYSFDVFRPSWYEETILNERPFITLFGPWSAGKTTFINYLLQSNDLWTGPQPTTAEFTVVMYGKEPGPVAGQALANSKHLPFKGLLDFGESFIRNLKGFQAPHALLERVTLIDTPGVLESAKDIHQRKYDYVNVCRWFAERSDLIFVFFDPSKLDAGGELRQLFQTSFKGFENRLRLVLNKADTISTQELMRVYGSLFWNLSNFINTTEPPRVYVGSFWDKPYSPNSFSRLFAEEKLDLLHELLEVIPQQARDKKVASLIRRAKEVLVHAVILGGIRADLPLLFGKSKAKKKAAEQLPRRYELIGARYKMNHRDFPPVQAYRSFLERFDVAKFPPLQKAEKAGLIRGIQELIDTILPSMLRPVCNTRAANPFEEDKQTGLLSMYRDHVLLQRDGRPGMQGGTDKVASTMGQGVPDSATTGPSSSVAAAPASGPSSLLGPGPAVTALSASPPFIELPSRAMAASSTAVAASSPPPPPPSSAAATSSPADMQAMMAIMQQMVAYQQQQQQQQDRQSSSAPATVNSHGTLSSSSSETSGCLAESSVPVTPQESNLNSEPQPPTVVPQLGLPNSCATQISAWAGGDESKSQH,soluble
2,MAHHHHHHMSKAVQFSVLKQGSLEPGSWTQRVLTIDTKSDTVTISRKHHPEHVFYHSLEVAHVQMWPRYKASEISGHFNSLKAKMTLRIFGKQVPVPKMSVEAVTTADVAEMIRVPSVPSSISLDASLNIERPPVAAATLSQKQKERHPATATSANDDLCDSWMIRFTSIDSYELAVMLLRNMRNTEGKRKRLFGDHVLQDLERVQKAWAEETTGAKSIGGALRSGS,soluble
3,MAHHHHHHMSSNDGLSEDTVMYIKDNNIGQLMEYILRCIITDKPTKPLEYVHELTASPLPPRVVLAGPPASGKGTQARHICSYYKRAIGKKPVHVSSGDLLRAEVAQGTHLGKIAENFMQRGELVPDSLIISIIRNRLTQEDAVMNGWLLDGFPRTRSQAIALDAAGLCPRIFVVLDTPDDVLFGRVEGRRTDPVTGIIYHLKYNPPPENDTALLERLQHRDDDTREVLGPRLETYHSMVEGLLDYYGSIMYHVDGNRPEAAITKDITEYLQNHNVA,soluble
4,MAHHHHHHMSSTEEYYKLMEVILHILKKHKRHVECLKILLKLNRRDKIKDLLFECGDMITCKQMALICSRHSIHLEFTQEEVIRYPHMNLNQLASLSSGEHLSSIFLKLAKDLDVEEPKLPEDIYKTHLEEKRNTNVWDSAKQNLSASFVNAFVNAAFCKDKLMTVNSSL,not soluble
5,MAHHHHHHMSSTSTTHPQLLLQQSKVKYLMKVCRPLCQFTQKCNRGSWVERTFGAERKKASSASEDNDLLSMHLPFSSDTAPPCGYSTTEAVRLISLPYHPHVYAYCLFESRLIFERAVLHGAIAPNVKPSQFFVHPISVMRHPEKFKLFFGEERSDVLLRLLVDLLGEYDGDDRSVVQKCRAKGVSNENWVPFLRGLGLCLAMGDIASSQATFVMEDCITGGGADCGLSLPGSYEKRGSVAAELLMEASVELGSLTLANLSLSLYRQFLPEVPLTASKKVTICTTRCERRFLEWNQRCLKTGPRR,not soluble
6,MAHHHHHHMSTNISPNIKKGGVTAADLMQLQGAALRLRSQCTQREADNRRLTQKLREYEEQLFFLRANELILRKQVSVWSSYHRLFAQPLYEARLAVERYKHEAHQSLVHEMQVDRQRRSSLANAANEKRERERAGLQARLRQLQELQDEKRKKNEELELRLRRASEESLRAQKQASKLKDELAYCMDRLEESERERERVKRHLSEHEAALLKARHNVAGMGHFEEEIRSRDTVIAQLQRTVRELNTIMAQQSASRLEEANGENTPPQHEAEEKKLAASPQRLLNDSCDSEWVLKQSIGWFRSKMEREMKPSTPRRQMFEPCSSSAHPAPSLSSFSWMEGRCDSGDVDLQEFLSRELQAPLL,not soluble
7,MAHHHHHHMSYLLHSSSYAAATAAAERDGPARGAGGGPLNVVLSRVRSLLHGEPSRVARATSIIDDGSSGSLKRAERHSGASSASRREVLLPLTHDSARVARVPEVSGFIEHGGGFAIPAAKASPRTAPTPVAPPTTNESPVHRPPSARPVDAARDASLYERAVDYTDLEEILRCPLPPVPGCPTPCAFGRHSAGLSSDGSVTAAATLSPPPAPSSARQPPLVFRCIAADSDTGISVYSTPAEDCPMHLMRAYAVLPCSPGDVLQYMDNDIRPRWDSHLRRSALLRELTPPEQTKAVERQYRLSTSIGTAGAAVSQRSPTSLSAQSQGALRQRASSSPRTTGAIHGGCGSAVVSGPATAAASSPTAFQYLPGQRRVAIHYLETRSPVPFVQDRDFEIVVAEEVRPDDTAYVKAFSTPLGYHMPLGPHQSRYVRAVVVLSGMVARPLDAARVEEVLPPVLLRHHRAAAQHGNIQVAGIATKKPSASATVCGDAAARAACVAAPHRYCVVEYVGLVHPMGLLPAVLVNMIISAQLNAMRKMQAFIMQHPMSTLRPRSATHAATGEATGQPLQELLVSLQSLSPSPRKSSRMGKSQESDAAGRTREVKPEATGASAASVSAPLAASPAPVWWRRQMHRFASNL,not soluble
8,MAHHHHHHMTAYPFPIIDVSPLYQNTGAVMEVAKKIDEACRTWGFFYVVGHPIPRERFQELSRMARKFFSLPLEEKLQIDIKKSRHHRGYGEVNAEQLDPSAPNDHKETFDMGCHLPEDHPDVVAGKPLRGPNRHPTQLEGWRELMETHYREMQHFALVLLRALAVAIGIEEDFFVPRFVEPLSVFRMIHYPALPKTKEGRLVCGEHTDYGIITLLFQDTNGGLQVRDLSGEWIDAPPLEGSFVVNIGDMMNMWSNNRYRSTPHRVVNPGVDRISMPFFCEPNPNVVIKCLENCHSAENPAKYPPVKASDWLQKRFAQTYAYRKSML,soluble
9,MAHHHHHHMTEYALSLYVTLPSSFPKAAPRATMPYCCHNVPITPPNINPSEALAYQWSSTTSTLVEAVRNAFQNAADCWGPVEPPSMRSVTLQLSGETDRLLQDLVTNPNCLDAYCYQLPIVKLMREASRHTVSEIERVANENTTLRNEVETLEAQVKDLQRYLDEQVSQLQQLEQNRLLLSVGTPEALIKTLEDDVRRMSSDCMTLGRRALDAYKADKGGFQDLLKQYKAQSKATHMLDLKRLSYRAQCAAS,not soluble
10,MAHHHHHHMTFEFGEECNNLARAAHQTKNYGDAISLYDRALTMRREKYGPIHKKCAATLHNIGRVFIDMKEYGAAENAFTEAAAIYEQVEGDKSLEYAESLELLALCYTHLKFLDEAEKAFKDSIRIFRDQCYNYGNNSWLPDDKTPPAEPNKHPLSSAAHALADCAALFLFRRQEHQAVAFLEEALEIRRFLYSRHVKFRPMIAQTLNKLCELKKSLDDAVGAEMCINECLEICIETLGRDHPATAQATSSKAGLLAAKKQFRDALRLYEESTRTYAMALGKDAPLFGQELMKLGRCQELCNDVVNAEKTFRRGVEIITNGFGPNSLQLAEANTFYGSLLARRLDIDQAVGMFRDAIRIRKSVDKHDPQLAYLYQKIGDAYAMRREPHAEAYFLLAVDAFKQNATIEPLQRTYMTDVLDDLGLFYLDFQHYEKAEKCFKEALDTRIEMLGENHATVAYSYSNFALLYLQRQDYANCEKMAEAALDIYSKTARSNVLAQADVHTTLGQCYHQQNQFAKALEMHEKALNVRRTRGDTTETAVAESLNQIARVYITMKRYGKAYRHVKEARRLVWQFNVEITQPLRNEIVKTEQMIPPMEEWTNEERAEAQVMIGDGSSAGNGSAATTATGA,not soluble
11,MAHHHHHHMTKVWMPWAYQALLAYAHSGAAHGQANLWLKGQTSTPLQRICDPVPNLLISQSSQGGQRALWLLHRPESVLGLVVSPQWQGESGDHELCDASVVSKRKIVRVMKHLHSLPFRVAGSSPLRPPMVVHKNHLVGWRIDGKAAPLYAHTLDQLAKLKPTQFKTIEPKNAFICRTYYEWDNWKEVSMEPGWTWHHVDEEIANNILDGTLTFDGLRATATDTP,not soluble
12,MAHHHHHHMTLIENLNSDKTFLENNQYTDEGVKVYEFIFGENYISSGGLEATKKILSDIELNENSKVLDIGSGLGGGCMYINEKYGAHTHGIDICSNIVNMANERVSGNNKIIFEANDILTKEFPENNFDLIYSRDAILHLSLENKNKLFQKCYKWLKPTGTLLITDYCATEKENWDDEFKEYVKQRKYTLITVEEYADILTACNFKNVVSKDLSDYWNQLLEVEHKYLHENKEEFLKLFSEKKFISLDDGWSRKIKDSKRKMQRWGYFKATKN,soluble
13,MAHHHHHHMTSAYRIRDAAPADAGIMVRMLMSLASETENVELDEGEVRRGVTTLFEQGSLGRLYVAEEVPKGDTNIKGPSDGNRSSPQIVGVMTVTYEWSDWRGKLFLWIQSVYIIPSKRKQGIFQKFYDHLIRIMAEDPKYCGLRLAVNSKNEKAIRAYKQVGMKREKYQLMGRMKSKY,soluble
14,MAHHHHHHMTSLQNLFVAKLPRNLTDADLHQIFVQYNPTSAKVMLDATTGKSKGFGFVLFASEDAGRTAYEKLNKTHVTLHGHNFNLCIFPSKHDGKVAMEESNALYVRNIPLKLSQAEVEQFLRGFGPLTYCAMREDNFGGSVWVVYAEFDSVESAKRALMSLHGNRTYFNTSVAILAKYADSEETKRERRRRREQQQAEQQHLDTVHNFGSPTTGLDSNKGFAVQSQNTPLPPPPPPPMRTSPGHSSTGSTLASSYSTSDMHKEGTGASLHPPTFASISHHFAPGRHGGGGPPPAMGQPAAPPASSMLASSTLQPTQPVSGQPQQSPTPNSGSFLNVIFNPTSANNFGNSFTHYSVLDQTPSRSSPGTPLNFSFGPEMENSGALANGLGTGSHAMLSASGHAPMTPVRRSSNLSTSGSYRHNPYAPVTPVSSTHNSTGPSTPLVSSIAYPTAPLAIMHFGASHHLQGSPVALHPLGPGIGVANNHFASRGNNAYLAAPASFNDLSH,not soluble
15,MAHHHHHHMTSSSVTPDQVLAFTAPTERFLCPLTANKYGVEFYQFTIRDIEQNKVLFEVGEAPDGSADGSVTDMLARVAQLSEEEAAAARTIRYRFAPSFLRKTAVGAKLVFGVNGDQPVPKFRMIERHYFRNVLIKSFDFEFGFCIPHSTNTWEAIYDMPSLNPEWEEAIVASPFEMASDSFYFVGNELIMHNKAYYAYDGEEL,not soluble
16,MAHHHHHHMTTLEKQLQSSTLSKQCRADLLNHVEEVETNSRRLPKKMITLPDPNLPSAVTMPTDNSVKRGTRSATAGANMARSLHYTTRKREKDEMVASRITSDRNLSGTYFKDCSHKFVNGARSWSDPFRSSRSRTALSGKDMDFVYRYAEAATGSAIERPQPADDASVAATAAYRKAFRQYKGRDPTAKEMEEAGRLVYAFDENCSVGVLQKPHSCYPHTHISAVKTHIRACPNQVYLPEVPPVRAARSEFPGPIPTWSSTKRTTTMATNGTYRPGHHQAKSLKWEAVSTVVGSR,not soluble
17,MAHHHHHHMVRRLEGNPVPTIGIIFMLHAHRTAHLKYYQSMSLFAIENVDVVWGAAGYSILKQTQGAWMALYDEAYVSENKVMPFGYLVQNGVLMPTSDPCNAANTLAGDGSATAKKWGGTSQQKHRYAYEADVVPRRSCIKARTRSADNSGRRVTFCSGDTEFGVF,not soluble
18,MAHHHHHHMVSFSLIIYTSLRLAHACDARNCTLQQLGRQLEAVVTVCDESSSTTTTESTSERANNASSAADATRTGQGADAAQQVHSTTQAKRASLARDSDFKSSSEIAAFSVLRAWCPPPTARILILGMGGNSMAHALRVVLGAEALIEVVEVEPAVVVSCMQMGTLHESDTKTKVHLQDADQCLATLPPTTYDFIYMDIFEPIQATMRNLHPWVLATRTLLKPGGLLVMNDHHLPSAAGVAPYAKVFGEGNVQAVNLRGWSESIVVCVAPGDAATDKYSLDVSKTHADIAFNIYETLVPGWLPHFSWLVKAKTYRHEGVRCRLWTS,soluble
19,MAHHHHHHMYDVKSIHIFRKVKDKDKGKSVILRGLNDNFFNAILVCMYEIVIYLNFANCEDGSTNKPSNKKKKKKGDDRNETTYYVKSARNENNAYRSNVKEVISHNKNKKKINGASGNAAVTREEKGKAERSGDFPGGGENMNDDKENPNQITLWSSNNHEEFGYEYIKDIIKKEEKELYETDKMYHNSNDEYSSHTSDSVEQ,not soluble
